Results: US20040121955A1

Tests used:
[1] = molecular target: VEGF receptors on bovine aortic endothelial cells; assay: cell-based or functional assay

Sequence of rPAI-123, P79335 (P79335 whole entry, looked up): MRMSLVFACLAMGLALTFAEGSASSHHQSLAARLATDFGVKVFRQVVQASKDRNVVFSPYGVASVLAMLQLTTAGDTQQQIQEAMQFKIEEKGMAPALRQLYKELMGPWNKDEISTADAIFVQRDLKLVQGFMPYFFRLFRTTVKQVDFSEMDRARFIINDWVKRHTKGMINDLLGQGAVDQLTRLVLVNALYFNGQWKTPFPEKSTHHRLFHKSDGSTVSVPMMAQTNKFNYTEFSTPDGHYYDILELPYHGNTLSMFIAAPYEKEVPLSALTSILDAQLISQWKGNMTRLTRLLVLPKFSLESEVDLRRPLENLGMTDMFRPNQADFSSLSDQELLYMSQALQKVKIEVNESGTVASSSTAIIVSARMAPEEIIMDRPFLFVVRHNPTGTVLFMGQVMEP
Sequence of rPAI-1Δ23, P79335 (P79335 whole entry, looked up, stated change not applied): as the sequence (P79335 whole entry, looked up) above

Row | apoptosis (Annexin V) in rPAI-123-treated BAEC versus PAEC [1] | Molecule | plasminogen cleavage (immunoblot probed for mini-plasminogen) (rPAI-123, P79335) | plasminogen cleavage (immunoblot probed for mini-plasminogen) (rPAI-1Δ23, P79335)
1 | 60% | 125I-VEGF (ligand) | – | –
2 | – | plasminogen (protein) EPLDDYVNTQGASLFSVTKKQLGAGSIEECAAKCEEDEEFTCRAFQYHSKEQQCVIMAENRKSSIIIRMRDVVLFEKKVYLSECKTGNGKNYRGTMSKTKNGITCQKWSSTSPHRPRFSPATHPSEGLEENYCRNPDNDPQGPWCYTTDPEKRYDYCDILECEEECMHCSGENYDGKISKTMSGLECQAWDSQSPHAHGYIPSKFPNKNLKKNYCRNPDRELRPWCFTTDPNKRWELCDIPRCTTPPPSSGPTYQCLKGTGENYRGNVAVTVSGHTCQHWSAQTPHTHNRTPENFPCKNLDENYCRNPDGKRAPWCHTTNSQVRWEYCKIPSCDSSPVSTEQLAPTAPPELTPVVQDCYHGDGQSYRGTSSTTTTGKKCQSWSSMTPHRHQKTPENYPNAGLTMNYCRNPDADKGPWCFTTDPSVRWEYCNLKKCSGTEASVVAPPPVVLLPDVETPSEEDCMFGNGKGYRGKRATTVTGTPCQDWAAQEPHRHSIFTPETNPRAGLEKNYCRNPDGDVGGPWCYTTNPRKLYDYCDVPQCAAPSFDCGKPQVEPKKCPGRVVGGCVAHPHSWPWQVSLRTRFGMHFCGGTLISPEWVLTAAHCLEKSPRPSSYKVILGAHQEVNLEPHVQEIEVSRLFLEPTRKDIALLKLSSPAVITDKVIPACLPSPNYVVADRTECFITGWGETQGTFGAGLLKEAQLPVIENKVCNRYEFLNGRVQSTELCAGHLAGGTDSCQGDSGGPLVCFEKDKYILQGVTSWGLGCARPNKPGVYVRVSRFVTWIEGVMRNN | a distinct plasminogen cleavage product near 50 kDa in all reactions containing the rPAI-123 protein (3, 15 and 30 nM) | the rPAI-1?23 protein did not cleave plasminogen, even when increasing concentrations of the recombinant protein were added
